Assay results as given in the supplement of paper PMC11908140.

B1: library; numbered along this chain (parent)
chain: MRKPRAAVGSGHRKQAASQEGRQKHAKNNSQAKPSACDGLARQPEEVVLQASVSSYHLFRDVAEVTAFRGSLLSWYDQEKRDLPWRRRAEDEMDLDRRAYAVWVSEVMLQQTQVATVINYYTGWMQKWPTLQDLASASLEEVNQLWAGLGYYSRGRRLQEGARKVVEELGGHMPRTAETLQQLLPGVGRYTAGAIASIAFGQATGVVDGNVARVLCRVRAIGADPSSTLVSQQLWGLAQQLVDPARPGDFNQAAMELGATVCTPQRPLCSQCPVESLCRARQRVEQEQLLASGSLSGSPDVEECAPNTGQCHLCLPPSEPWDQTLGVVNFPRKASRKPPREESSATCVLEQPGALGAQILLVQRPNSGLLAGLWEFPSVTWEPSEQLQRKALLQELQRWAGPLPATHLRHLGEVVHTFSHIKLTYQVYGLALEGQTPVTTVPPGARWLTQEEFHTAAVSTAMKKVFRVYQGQQPGTCMGSKRSQVSSPCSRKKPRMGQQVLDNFFRSHISTDAHSLNSAAQ

Variants of: B1
Experiment: 8OG:A repair function score (normalized; synonymous = 0, nonsense = -1) (normalized log-likelihood score); higher = more repair activity (WT-like)
Details: with 8OG:A DNA repair reporter (GFP) in HEK-293 MUTYH KO cells
Experimental: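 Saturation mutagenesis (NNN codon scan) of the MUTYH cDNA (521-aa nuclear isoform NM_001048174.1 / NP_001041639), stably expressed under doxycycline induction in HEK-293 MUTYH knockout cells. Cells were co-transfected with an 8OG:A-bearing GFP repair reporter plus mCherry and sorted 72 h later into GFP+ and GFP− bins, three replicates per tile. The Rosace log2 enrichment (GFP+ vs GFP−) was converted per tile to a normalized function score with synonymous variants centered at 0 and nonsense variants (codons 1-471) at -1; low-abundance variants were removed.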

Row | Variant | 8OG:A repair function score
1 | MLKPRAAVGSGHRKQAASQEGRQKHAKNNSQAKPSACDGLARQPEEVVLQASVSSYHLFRDVAEVTAFRGSLLSWYDQEKRDLPWRRRAEDEMDLDRRAYAVWVSEVMLQQTQVATVINYYTGWMQKWPTLQDLASASLEEVNQLWAGLGYYSRGRRLQEGARKVVEELGGHMPRTAETLQQLLPGVGRYTAGAIASIAFGQATGVVDGNVARVLCRVRAIGADPSSTLVSQQLWGLAQQLVDPARPGDFNQAAMELGATVCTPQRPLCSQCPVESLCRARQRVEQEQLLASGSLSGSPDVEECAPNTGQCHLCLPPSEPWDQTLGVVNFPRKASRKPPREESSATCVLEQPGALGAQILLVQRPNSGLLAGLWEFPSVTWEPSEQLQRKALLQELQRWAGPLPATHLRHLGEVVHTFSHIKLTYQVYGLALEGQTPVTTVPPGARWLTQEEFHTAAVSTAMKKVFRVYQGQQPGTCMGSKRSQVSSPCSRKKPRMGQQVLDNFFRSHISTDAHSLNSAAQ [R2L] | -0.084
2 | MHKPRAAVGSGHRKQAASQEGRQKHAKNNSQAKPSACDGLARQPEEVVLQASVSSYHLFRDVAEVTAFRGSLLSWYDQEKRDLPWRRRAEDEMDLDRRAYAVWVSEVMLQQTQVATVINYYTGWMQKWPTLQDLASASLEEVNQLWAGLGYYSRGRRLQEGARKVVEELGGHMPRTAETLQQLLPGVGRYTAGAIASIAFGQATGVVDGNVARVLCRVRAIGADPSSTLVSQQLWGLAQQLVDPARPGDFNQAAMELGATVCTPQRPLCSQCPVESLCRARQRVEQEQLLASGSLSGSPDVEECAPNTGQCHLCLPPSEPWDQTLGVVNFPRKASRKPPREESSATCVLEQPGALGAQILLVQRPNSGLLAGLWEFPSVTWEPSEQLQRKALLQELQRWAGPLPATHLRHLGEVVHTFSHIKLTYQVYGLALEGQTPVTTVPPGARWLTQEEFHTAAVSTAMKKVFRVYQGQQPGTCMGSKRSQVSSPCSRKKPRMGQQVLDNFFRSHISTDAHSLNSAAQ [R2H] | -0.00678
3 | MCKPRAAVGSGHRKQAASQEGRQKHAKNNSQAKPSACDGLARQPEEVVLQASVSSYHLFRDVAEVTAFRGSLLSWYDQEKRDLPWRRRAEDEMDLDRRAYAVWVSEVMLQQTQVATVINYYTGWMQKWPTLQDLASASLEEVNQLWAGLGYYSRGRRLQEGARKVVEELGGHMPRTAETLQQLLPGVGRYTAGAIASIAFGQATGVVDGNVARVLCRVRAIGADPSSTLVSQQLWGLAQQLVDPARPGDFNQAAMELGATVCTPQRPLCSQCPVESLCRARQRVEQEQLLASGSLSGSPDVEECAPNTGQCHLCLPPSEPWDQTLGVVNFPRKASRKPPREESSATCVLEQPGALGAQILLVQRPNSGLLAGLWEFPSVTWEPSEQLQRKALLQELQRWAGPLPATHLRHLGEVVHTFSHIKLTYQVYGLALEGQTPVTTVPPGARWLTQEEFHTAAVSTAMKKVFRVYQGQQPGTCMGSKRSQVSSPCSRKKPRMGQQVLDNFFRSHISTDAHSLNSAAQ [R2C] | -0.529
4 | MAKPRAAVGSGHRKQAASQEGRQKHAKNNSQAKPSACDGLARQPEEVVLQASVSSYHLFRDVAEVTAFRGSLLSWYDQEKRDLPWRRRAEDEMDLDRRAYAVWVSEVMLQQTQVATVINYYTGWMQKWPTLQDLASASLEEVNQLWAGLGYYSRGRRLQEGARKVVEELGGHMPRTAETLQQLLPGVGRYTAGAIASIAFGQATGVVDGNVARVLCRVRAIGADPSSTLVSQQLWGLAQQLVDPARPGDFNQAAMELGATVCTPQRPLCSQCPVESLCRARQRVEQEQLLASGSLSGSPDVEECAPNTGQCHLCLPPSEPWDQTLGVVNFPRKASRKPPREESSATCVLEQPGALGAQILLVQRPNSGLLAGLWEFPSVTWEPSEQLQRKALLQELQRWAGPLPATHLRHLGEVVHTFSHIKLTYQVYGLALEGQTPVTTVPPGARWLTQEEFHTAAVSTAMKKVFRVYQGQQPGTCMGSKRSQVSSPCSRKKPRMGQQVLDNFFRSHISTDAHSLNSAAQ [R2A] | -0.0711
5 | MKKPRAAVGSGHRKQAASQEGRQKHAKNNSQAKPSACDGLARQPEEVVLQASVSSYHLFRDVAEVTAFRGSLLSWYDQEKRDLPWRRRAEDEMDLDRRAYAVWVSEVMLQQTQVATVINYYTGWMQKWPTLQDLASASLEEVNQLWAGLGYYSRGRRLQEGARKVVEELGGHMPRTAETLQQLLPGVGRYTAGAIASIAFGQATGVVDGNVARVLCRVRAIGADPSSTLVSQQLWGLAQQLVDPARPGDFNQAAMELGATVCTPQRPLCSQCPVESLCRARQRVEQEQLLASGSLSGSPDVEECAPNTGQCHLCLPPSEPWDQTLGVVNFPRKASRKPPREESSATCVLEQPGALGAQILLVQRPNSGLLAGLWEFPSVTWEPSEQLQRKALLQELQRWAGPLPATHLRHLGEVVHTFSHIKLTYQVYGLALEGQTPVTTVPPGARWLTQEEFHTAAVSTAMKKVFRVYQGQQPGTCMGSKRSQVSSPCSRKKPRMGQQVLDNFFRSHISTDAHSLNSAAQ [R2K] | 0.125
6 | MFKPRAAVGSGHRKQAASQEGRQKHAKNNSQAKPSACDGLARQPEEVVLQASVSSYHLFRDVAEVTAFRGSLLSWYDQEKRDLPWRRRAEDEMDLDRRAYAVWVSEVMLQQTQVATVINYYTGWMQKWPTLQDLASASLEEVNQLWAGLGYYSRGRRLQEGARKVVEELGGHMPRTAETLQQLLPGVGRYTAGAIASIAFGQATGVVDGNVARVLCRVRAIGADPSSTLVSQQLWGLAQQLVDPARPGDFNQAAMELGATVCTPQRPLCSQCPVESLCRARQRVEQEQLLASGSLSGSPDVEECAPNTGQCHLCLPPSEPWDQTLGVVNFPRKASRKPPREESSATCVLEQPGALGAQILLVQRPNSGLLAGLWEFPSVTWEPSEQLQRKALLQELQRWAGPLPATHLRHLGEVVHTFSHIKLTYQVYGLALEGQTPVTTVPPGARWLTQEEFHTAAVSTAMKKVFRVYQGQQPGTCMGSKRSQVSSPCSRKKPRMGQQVLDNFFRSHISTDAHSLNSAAQ [R2F] | 0.0866
7 | MIKPRAAVGSGHRKQAASQEGRQKHAKNNSQAKPSACDGLARQPEEVVLQASVSSYHLFRDVAEVTAFRGSLLSWYDQEKRDLPWRRRAEDEMDLDRRAYAVWVSEVMLQQTQVATVINYYTGWMQKWPTLQDLASASLEEVNQLWAGLGYYSRGRRLQEGARKVVEELGGHMPRTAETLQQLLPGVGRYTAGAIASIAFGQATGVVDGNVARVLCRVRAIGADPSSTLVSQQLWGLAQQLVDPARPGDFNQAAMELGATVCTPQRPLCSQCPVESLCRARQRVEQEQLLASGSLSGSPDVEECAPNTGQCHLCLPPSEPWDQTLGVVNFPRKASRKPPREESSATCVLEQPGALGAQILLVQRPNSGLLAGLWEFPSVTWEPSEQLQRKALLQELQRWAGPLPATHLRHLGEVVHTFSHIKLTYQVYGLALEGQTPVTTVPPGARWLTQEEFHTAAVSTAMKKVFRVYQGQQPGTCMGSKRSQVSSPCSRKKPRMGQQVLDNFFRSHISTDAHSLNSAAQ [R2I] | 0.124
8 | MPKPRAAVGSGHRKQAASQEGRQKHAKNNSQAKPSACDGLARQPEEVVLQASVSSYHLFRDVAEVTAFRGSLLSWYDQEKRDLPWRRRAEDEMDLDRRAYAVWVSEVMLQQTQVATVINYYTGWMQKWPTLQDLASASLEEVNQLWAGLGYYSRGRRLQEGARKVVEELGGHMPRTAETLQQLLPGVGRYTAGAIASIAFGQATGVVDGNVARVLCRVRAIGADPSSTLVSQQLWGLAQQLVDPARPGDFNQAAMELGATVCTPQRPLCSQCPVESLCRARQRVEQEQLLASGSLSGSPDVEECAPNTGQCHLCLPPSEPWDQTLGVVNFPRKASRKPPREESSATCVLEQPGALGAQILLVQRPNSGLLAGLWEFPSVTWEPSEQLQRKALLQELQRWAGPLPATHLRHLGEVVHTFSHIKLTYQVYGLALEGQTPVTTVPPGARWLTQEEFHTAAVSTAMKKVFRVYQGQQPGTCMGSKRSQVSSPCSRKKPRMGQQVLDNFFRSHISTDAHSLNSAAQ [R2P] | -0.00444
9 | MMKPRAAVGSGHRKQAASQEGRQKHAKNNSQAKPSACDGLARQPEEVVLQASVSSYHLFRDVAEVTAFRGSLLSWYDQEKRDLPWRRRAEDEMDLDRRAYAVWVSEVMLQQTQVATVINYYTGWMQKWPTLQDLASASLEEVNQLWAGLGYYSRGRRLQEGARKVVEELGGHMPRTAETLQQLLPGVGRYTAGAIASIAFGQATGVVDGNVARVLCRVRAIGADPSSTLVSQQLWGLAQQLVDPARPGDFNQAAMELGATVCTPQRPLCSQCPVESLCRARQRVEQEQLLASGSLSGSPDVEECAPNTGQCHLCLPPSEPWDQTLGVVNFPRKASRKPPREESSATCVLEQPGALGAQILLVQRPNSGLLAGLWEFPSVTWEPSEQLQRKALLQELQRWAGPLPATHLRHLGEVVHTFSHIKLTYQVYGLALEGQTPVTTVPPGARWLTQEEFHTAAVSTAMKKVFRVYQGQQPGTCMGSKRSQVSSPCSRKKPRMGQQVLDNFFRSHISTDAHSLNSAAQ [R2M] | -0.169
10 | MDKPRAAVGSGHRKQAASQEGRQKHAKNNSQAKPSACDGLARQPEEVVLQASVSSYHLFRDVAEVTAFRGSLLSWYDQEKRDLPWRRRAEDEMDLDRRAYAVWVSEVMLQQTQVATVINYYTGWMQKWPTLQDLASASLEEVNQLWAGLGYYSRGRRLQEGARKVVEELGGHMPRTAETLQQLLPGVGRYTAGAIASIAFGQATGVVDGNVARVLCRVRAIGADPSSTLVSQQLWGLAQQLVDPARPGDFNQAAMELGATVCTPQRPLCSQCPVESLCRARQRVEQEQLLASGSLSGSPDVEECAPNTGQCHLCLPPSEPWDQTLGVVNFPRKASRKPPREESSATCVLEQPGALGAQILLVQRPNSGLLAGLWEFPSVTWEPSEQLQRKALLQELQRWAGPLPATHLRHLGEVVHTFSHIKLTYQVYGLALEGQTPVTTVPPGARWLTQEEFHTAAVSTAMKKVFRVYQGQQPGTCMGSKRSQVSSPCSRKKPRMGQQVLDNFFRSHISTDAHSLNSAAQ [R2D] | -0.112
11 | MNKPRAAVGSGHRKQAASQEGRQKHAKNNSQAKPSACDGLARQPEEVVLQASVSSYHLFRDVAEVTAFRGSLLSWYDQEKRDLPWRRRAEDEMDLDRRAYAVWVSEVMLQQTQVATVINYYTGWMQKWPTLQDLASASLEEVNQLWAGLGYYSRGRRLQEGARKVVEELGGHMPRTAETLQQLLPGVGRYTAGAIASIAFGQATGVVDGNVARVLCRVRAIGADPSSTLVSQQLWGLAQQLVDPARPGDFNQAAMELGATVCTPQRPLCSQCPVESLCRARQRVEQEQLLASGSLSGSPDVEECAPNTGQCHLCLPPSEPWDQTLGVVNFPRKASRKPPREESSATCVLEQPGALGAQILLVQRPNSGLLAGLWEFPSVTWEPSEQLQRKALLQELQRWAGPLPATHLRHLGEVVHTFSHIKLTYQVYGLALEGQTPVTTVPPGARWLTQEEFHTAAVSTAMKKVFRVYQGQQPGTCMGSKRSQVSSPCSRKKPRMGQQVLDNFFRSHISTDAHSLNSAAQ [R2N] | 0.108
12 | MGKPRAAVGSGHRKQAASQEGRQKHAKNNSQAKPSACDGLARQPEEVVLQASVSSYHLFRDVAEVTAFRGSLLSWYDQEKRDLPWRRRAEDEMDLDRRAYAVWVSEVMLQQTQVATVINYYTGWMQKWPTLQDLASASLEEVNQLWAGLGYYSRGRRLQEGARKVVEELGGHMPRTAETLQQLLPGVGRYTAGAIASIAFGQATGVVDGNVARVLCRVRAIGADPSSTLVSQQLWGLAQQLVDPARPGDFNQAAMELGATVCTPQRPLCSQCPVESLCRARQRVEQEQLLASGSLSGSPDVEECAPNTGQCHLCLPPSEPWDQTLGVVNFPRKASRKPPREESSATCVLEQPGALGAQILLVQRPNSGLLAGLWEFPSVTWEPSEQLQRKALLQELQRWAGPLPATHLRHLGEVVHTFSHIKLTYQVYGLALEGQTPVTTVPPGARWLTQEEFHTAAVSTAMKKVFRVYQGQQPGTCMGSKRSQVSSPCSRKKPRMGQQVLDNFFRSHISTDAHSLNSAAQ [R2G] | 0.122
